# In US20210040232A1 (Regeneron, published 2021):
# T1: soluble Macaca fascicularis CTLA-4 expressed with a C-terminal myc-myc-polyhistidine tag (Macaca fascicularis)
# T1 construct: soluble protein; also called mf CTLA-4.mmh; mfCTLA4.mmh
# T1 chain: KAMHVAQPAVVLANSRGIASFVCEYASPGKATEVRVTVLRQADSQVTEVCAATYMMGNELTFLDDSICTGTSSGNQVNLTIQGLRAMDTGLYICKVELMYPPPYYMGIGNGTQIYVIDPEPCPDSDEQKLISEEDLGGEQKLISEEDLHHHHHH
# Experiments:
# [1] = molecular target: T1, soluble Macaca fascicularis CTLA-4 …; experiment: SPR, mAb capture, 25 C
# [2] = molecular target: T2, soluble human CTLA-4 expressed with a C-terminal myc-myc-polyhistidine tag (human); experiment: SPR, mAb capture, 25 C
# T2 construct: soluble protein; also called hCTLA-4.mmh; hCTLA4.mmh
# [3] = molecular target: T3, human CTLA-4 (amino acids M1-N223) on stably transfected VI-fibroblast cells (human, UniProt P16410 36-223); experiment: ECL cell binding, VI-fibroblast/hCTLA-4 cells;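 further: antibodies bound to the cells on carbon electrode plates, detected via SULFO-TAG anti-IgG secondary (1 h, RT), electrochemiluminescence read as RLU over a concentration range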
# T3 construct: also called VI-fibroblast/hCTLA-4
# T3 sequence (P16410 36-223 limits assumed): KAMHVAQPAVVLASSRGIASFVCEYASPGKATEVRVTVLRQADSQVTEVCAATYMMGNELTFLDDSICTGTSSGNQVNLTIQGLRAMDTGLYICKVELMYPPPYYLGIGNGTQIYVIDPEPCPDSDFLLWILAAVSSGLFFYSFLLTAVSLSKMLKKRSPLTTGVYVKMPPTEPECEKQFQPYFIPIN
# [4] = molecular target: T4, recombinant hCTLA-4-mFc (human CTLA-4 extracellular domain with a C-terminal Fc portion of mouse IgG2a) (human); experiment: competition ELISA, 200 pM hCTLA-4-mFc on plate-coated hB7-1-hIgG1-6His
# T4 construct: also called dimeric CTLA-4 protein
# T4 sequence (chain, as listed by the source limits assumed): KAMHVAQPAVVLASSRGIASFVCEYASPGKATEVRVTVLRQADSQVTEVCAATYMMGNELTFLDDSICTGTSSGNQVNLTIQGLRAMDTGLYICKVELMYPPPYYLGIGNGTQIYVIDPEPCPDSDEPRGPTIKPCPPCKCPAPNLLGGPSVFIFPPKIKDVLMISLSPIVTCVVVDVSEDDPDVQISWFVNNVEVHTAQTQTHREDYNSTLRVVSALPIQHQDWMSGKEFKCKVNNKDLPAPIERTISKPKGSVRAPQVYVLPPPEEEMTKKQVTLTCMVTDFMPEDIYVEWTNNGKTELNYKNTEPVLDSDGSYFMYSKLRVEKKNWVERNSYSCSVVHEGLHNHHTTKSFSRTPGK
# [5] = molecular target: T4, recombinant hCTLA-4-mFc (human CTLA-4 …); experiment: competition ELISA, 400 pM hCTLA-4-mFc on plate-coated hB7-2-hIgG1-6His
# [6] = molecular target: T5, hCTLA-4 extracellular domain (aa 1-161) fused to the trans-membrane and cytoplasmic domain of hCD300a (aa … (human, UniProt Q9UGN4 181-299)); experiment: ECL cell binding, Jurkat/NFAT-Luc/hCTLA-4-hCD300a cells
# T5 construct: range 181-299; the range as stated begins at residue 1 and so holds the signal peptide; also called Jurkat/NFAT-Luc/hCTLA-4-hCD300a; hCTLA-4/hCD300 chimera
# T5 sequence (Q9UGN4 other isoform, or with tags, fused parts or gaps limits assumed, form in doubt): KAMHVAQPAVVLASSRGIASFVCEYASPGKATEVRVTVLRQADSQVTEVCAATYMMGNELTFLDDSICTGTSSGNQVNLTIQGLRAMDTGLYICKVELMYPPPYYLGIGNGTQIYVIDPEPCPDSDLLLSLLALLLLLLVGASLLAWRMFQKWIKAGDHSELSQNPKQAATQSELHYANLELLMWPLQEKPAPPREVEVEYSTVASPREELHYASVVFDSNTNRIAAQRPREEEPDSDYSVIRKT
# [7] = molecular target: T5, hCTLA-4 extracellular domain (aa 1-161) …; experiment: cell-based or functional assay
# [8] = molecular target: T5, hCTLA-4 extracellular domain (aa 1-161) …; experiment: cell-based or functional assay; remark: listed apart in the source
# [9] = molecular target: mf CTLA-4 extracellular domain (aa 1-161) fused to the trans-membrane and cytoplasmic domain of hCD300a (aa … (Macaca fascicularis; human, UniProt G7PL88 1-161; Q9UGN4 181-299); experiment: cell-based or functional assay
Kd [1] [nM],koff [1] [s⁻¹],kon [1] [M⁻¹ s⁻¹],t1/2 [1] [min],Kd [2] [nM],koff [2] [s⁻¹],kon [2] [M⁻¹ s⁻¹],t1/2 [2] [min],ratio of RLU signal to parental VI-fibroblast at 0.4 nM Ab [3] [ratio],% Blockade [4] [%],IC50 [4] [nM],% Blockade [5] [%],IC50 [5] [nM],EC50 [6] [nM],"EC50, T-cell/APC IL-2 release assay, APC HEK293/hCD20/hCD80 [7] [nM]","Fold induction of IL-2 at 100 nM, APC HEK293/hCD20/hCD80 [7] [fold]","EC50, T-cell/APC NFAT-luciferase assay, +Fc Block [8] [nM]","EC50, T-cell/APC NFAT-luciferase assay, -Fc Block [8] [nM]",EC50 [3] [nM],"EC50, T-cell/APC NFAT-luciferase assay, +Fc Block [9] [nM]",Binder
12.9,,,4.4,10.2,,,7.9,,85,320,97,43,0.28,,,4.18,2.47,0.24,,"H1H19319P2 (antibody, human IgG1, V domains shown) VH: QVQLVESGGGEVQPGRSLRLSCAASGFTFSSYGMHWVRQAPGKGLEWVAVIWYDGRNKHYVDSVKGRFTISRDNSKNTVYLQMNSLRAEDSAVYYCVRGGQLGAFDYWGQGTLVTVSS VL: not shown"
0.976,0.000464,475000,24.9,1.55,0.000758,489000,15.2,11,98,0.4,99,0.77,0.11,21.9,5.7,3.47,1.69,0.16,,"H1H19313P (antibody, human IgG1, V domains shown) VH: QITLKESGPTLVKPTQTLTLTCTFSGFSLSTSGVGVGWIRQPPGVALEWLALIYWNDDKRFSPSLKSRLTITKDTSKNQVVLTMTNMDPVDTATYYCAHRRLGLYYFDYWGQGTLVTVSS VL: DIQLTQSPSFLSASVGDRVTITCWASQGISSYLAWYQQKPGKAPKLLIYAASTLQSGVPSRFSGSGSGTEFTLTISSLQPEDFATYYCQQVHIYPFTFGPGTKVDIK"
62.4,0.0117,188000,1,66.3,0.000585,8810,19.8,16,7,,38,,,,,5.49,4.2,0.29,5.76,"H1H19327P2 (antibody, human IgG1, V domains shown) VH: QVQLVESGGGVVQPGRSLRLSCAASGFTSSSYGIHWVRQAPGKGLEWVAVIWYDGSNKYYADSVKGRFTISRDNSKNTLYLQMNSLRAEDTAVYYCARGGPWGAFDIWGQGTMVTVSS VL: not shown"

# Continued, binder first:
Binder,Kd [1] [nM],koff [1] [s⁻¹],kon [1] [M⁻¹ s⁻¹],t1/2 [1] [min],Kd [2] [nM],koff [2] [s⁻¹],kon [2] [M⁻¹ s⁻¹],t1/2 [2] [min],ratio of RLU signal to parental VI-fibroblast at 0.4 nM Ab [3] [ratio],% Blockade [4] [%],IC50 [4] [nM],% Blockade [5] [%],IC50 [5] [nM],EC50 [6] [nM],"EC50, T-cell/APC IL-2 release assay, APC HEK293/hCD20/hCD80 [7] [nM]","Fold induction of IL-2 at 100 nM, APC HEK293/hCD20/hCD80 [7] [fold]","EC50, T-cell/APC NFAT-luciferase assay, +Fc Block [8] [nM]","EC50, T-cell/APC NFAT-luciferase assay, -Fc Block [8] [nM]",EC50 [3] [nM],"EC50, T-cell/APC NFAT-luciferase assay, +Fc Block [9] [nM]"
"H1H19284P (antibody, human IgG1, V domains shown) VH: EVQLVESGGGLVQPGGSLRLSCAASGFTLSNYVMTWVRQAPGKGLEWVSAISGRGGNSYYADSVKGRFSISRDHSKNTLYLQVNSLRAEDTAVYYCAKAERGYSYGFNWFDPWGQGTLVTVSS VL: DIQMTQSPSSVSASAGDRVTITCRASQGISSWLAWYQQKPGKAPKLLIYAASSLQSGVPSRFSGSGSGTDFTLTISSLQPEDFASYYCQQGNNFPLTFGGGTKVEIK",1.57,0.000305,194000,37.9,2.49,0.000369,148000,31.3,7,98,0.17,99,0.31,,,,,,,
"H1H19273P (antibody, human IgG1, V domains shown) VH: QITLKESGPTLVKPTQTLTLTCTFSGFSLSTSGVGVGWIRQSPGRALEWLALIYWNDHERYSPSLKSRLTITKDTSKNLVVLAMANMDPVDTATYFCAHRNIEYRRSYFFDYWGQGTLVTVSS VL: DIQMTQSPSSVSASVRDRVTVTCRASQDINNWLAWYQQKPGKAPKLLIYAASSLQSGVPSRFSGSGSGTDFTLTISSLQPEDFATYYCQQANTFPFTFGPGTKVDIK",0.956,0.000346,362000,33.4,0.966,0.000362,374000,31.9,11,98,0.25,98,0.54,0.52,33.3,5.1,3.83,2.74,,
"H1H19303P (antibody, human IgG1, kappa, V domains shown, also called REGN4659) VH: EVQLVESGGGLVQPGGSLRLSCAASGFTFSNYEMSWVRQAPGKGLEWVSSIRTSGTTKYYADSMKGRFTISRDNAKNSLYLQMNSLRAEDTAVYYCAGGGTFLHYWGQGTLVTVSS VL: DIQMTQSPSSVSASVGDRVTITCRASQGIASYLAWYQQKPGKAPKLLIYAASSLQTGVPSRFSGSGYGTDFTLTISSLQPEDFATYYCQQAKSFPMYTFGQGTKLEIKR",15.7,0.00245,156000,4.7,16.4,0.00199,121000,5.8,20,90,180,97,39,0.29,40.9,5.4,1.73,1.61,0.21,
"H1H19291P (antibody, human IgG1, V domains shown) VH: QVQLVESGGGVVQPGRSLRLSCAASGFTFSTYGMHWVRQAPGKGLEWVTVIWYDGNNKYYADSVKGRFTISRDNSKNTLYLQMNNLRAEDTALYYCARGGGRLSYYHDYWGQGTLVTVSS VL: DIQMTQSPSSLSASVGDRVTITCRASQSISTFLNWYQQKPGKAPNLLIYGTSSLQSGVPSRFSGSGSGTDFTLTISSLQPEDFAAYYCQQTYSTPFTFGPGTKVDIK",13,0.00121,93100,9.6,13.8,0.00123,88800,9.4,5,98,2,99,2.5,,,,3.92,2.36,,7.67
"H1H19294P (antibody, human IgG1, V domains shown) VH: QVQLVQSGAEVKMSGASVRVSCKASGYTFTSYGISWMRQAPGQGLEWMGWITAYNGNSNYAQKLQGRVTMTTDTSTGTAYMELRSLTSDDTAVYYCARRGDYLGVFPYWGQGTLVTVSS VL: DIQMTQSPSSLSASVGDRVTITCRASQSISSYLNWYQQKPGKAPNLLIYTASSLQSGVPSRFSGSGSGTDFTLTISSLQPEDFATYYCQQSYSSPLTFGGGTKVEIK",1.02,0.000269,263000,43,1.13,0.000323,285000,35.7,10,99,0.15,99,0.25,,,,,,0.68,
